In paper PMC11775670:

Target: PksD (Bacillus subtilis str. 168) (UniProt O34877)
Conditions: scale: % relative to the acetyl-PksJ ACP4 domain

UniProt O34877, sequence (O34877 whole entry, the tested form may be a part): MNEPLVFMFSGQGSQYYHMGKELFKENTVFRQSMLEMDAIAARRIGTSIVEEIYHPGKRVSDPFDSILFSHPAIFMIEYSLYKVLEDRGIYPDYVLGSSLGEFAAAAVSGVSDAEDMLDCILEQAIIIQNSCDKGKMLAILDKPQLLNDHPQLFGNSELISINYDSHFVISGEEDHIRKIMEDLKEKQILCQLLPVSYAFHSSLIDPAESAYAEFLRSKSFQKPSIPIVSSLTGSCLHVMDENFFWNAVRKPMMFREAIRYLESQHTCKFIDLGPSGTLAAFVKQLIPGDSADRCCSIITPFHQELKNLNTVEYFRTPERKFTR

Row | acetyl group hydrolysis by PksD relative to the acetyl-PksJ ACP4 domain, intact protein-MS | Substance
1 | 12 | acetyl-loaded BlmVIII ACP7 domain (domain or fragment)
2 | 41 | acetyl-loaded GbnD5 ACP12 domain (domain or fragment)
3 | 7 | acetyl-loaded IcoA PCP2 domain (domain or fragment)
